How the values were obtained:
[1] = target: FLAG-tagged Sei1∆231-243, locking helix replaced by a flexible linker (S. cerevisiae) (UniProt Q06058); test: cryo-EM structure; single-particle cryo-EM of FLAG-purified protein in DDM/CHS (50 mM Tris.HCl pH7.4, 200 mM NaCl, 1 mM EDTA); C10 symmetry applied
[2] = target: the molecule itself; test: as above

stoichiometry N [1]	Molecule	stoichiometry N [2]
10	FLAG-tagged Sei1∆231-243, locking helix replaced by a flexible linker (from UniProt Q06058 1-230; Q06058 244-285) (natural protein)	–
–	C-terminally 3xFLAG tagged Sei1 (yeast Seipin) (natural protein, S. cerevisiae, Sei1, the yeast Seipin, S. cerevisiae; model built for residues 24-132 and 145-265; also called Sei1-FLAG; WT Sei1; source: S. cerevisiae, plasmid-borne, in detergent extract of crude membranes; not shown: 3xFLAG, C-terminal, kept; copies: 10) MKINVSRPLQFLQWSSYIVVAFLIQLLIILPLSILIYHDFYLRLLPADSSNVVPLNTFNILNGVQFGTKFFQSIKSIPVGTDLPQTIDNGLSQLIPMRDNMEYKLDLNLQLYCQSKTDHLNLDNLLIDVYRGPGPLLGAPGGSNSKDEKIFHTSRPIVCLALTDSMSPQEIEQLGPSRLDVYDEEWLNTIRIEDKISLESSYETISVFLKTEIAQRNLIIHPESGIKFRMNFEQGLRNLMLRKRFLSYIIGISIFHCIICVLFFITGCTAFIFVRKGQEKSKKHS	10
